This experiment has as its target NADP+-specific glutamate dehydrogenase from Aspergillus terreus (Aspergillus terreus). Nature of the experiment: crystal structure.

In turn, “NADP+-specific glutamate dehydrogenase from Aspergillus terreus (enzyme)” showed a stoichiometry N of 6.

Source of the values: article doi:10.1101/2021.09.28.462122.
